Biological target: His-tAmSOD2 (Avicennia marina MnSOD, AmSOD2, without the mitochondrial transit peptide) (Avicennia marina)
Assay: SEC; gel filtration chromatography on a calibrated Biosil-250 analytical column, elution compared with standard proteins; native mass of almost 116 kDa against a single band of 26 kDa after SDS and DTT

stoichiometry N: 4
Substance: His-tAmSOD2 (Avicennia marina MnSOD, AmSOD2, without the mitochondrial transit peptide) (enzyme)

Source: article PMC10764323
